Biological target: recombinant HA Victoria (B/Brisbane/60/2008) fused to an HIS-Tag (influenza B virus B/Brisbane/60/2008 (Victoria lineage))
Experiment: SPR

Work on “NKp46-Ig (extracellular portion of human NKp46 fused to the Fc portion of human IgG1) (from UniProt O76036 22-258) (Fc fusion)” yielded a fold lower affinity than to the HA of IAV of 7 fold.

— PMC7824211
